# Experimental data as given in PMC3354533.
# Target: endogenous calcineurin A (CaNA) in mouse primary cortical neurons (mouse (endogenous in primary cortical neurons)) (UniProt P63328)
# Test: FRET or BRET
"565/522 ratio, spine, AD brain SEC fraction 60 min","FRET Ratio increase, cytoplasm, 6 hours of TgCM","FRET Ratio increase, nucleus, 6 hours of TgCM","peak of the FRET distribution in spines, 15 min of TgCM","peak of the FRET distribution in spines, 30 min of TgCM","peak of the FRET distribution in spines, 60 min of TgCM",Substance
0.451,0.51,0.49,0.45,0.48,0.48,endogenous calcineurin B subunit (CaNB) in mouse primary cortical neurons (from UniProt Q63810 1-170) (natural protein)
,,,0.38,0.39,0.4,endogenous calmodulin (CaM) in mouse primary cortical neurons (from UniProt P0DP26 1-149) (natural protein)
